Patent publication US20090155176A1

How the values were obtained:
Settings in all cases: remark: other sources report otherwise
[1] = target: T1, LFA-1 (lymphocyte function-associated antigen-1), purified heterodimer captured on ELISA plates (human), P20701
[2] = target: T1, LFA-1 (lymphocyte function-associated …); assay: LFA-1/small molecule ELISA: sICAM-1 titrated against 25 nM fluorescein-labelled compound 2B on antibody-captured LFA-1
[3] = target: T1, LFA-1 (lymphocyte function-associated …); assay: LFA-1/ICAM-1 ELISA: sICAM-1 titrated against ICAM-1-Ig on antibody-captured LFA-1; reference compound 3 (2 nM IC50)

T1 sequence (P20701 26-1170 limits assumed, form in doubt, chain 1 of 2): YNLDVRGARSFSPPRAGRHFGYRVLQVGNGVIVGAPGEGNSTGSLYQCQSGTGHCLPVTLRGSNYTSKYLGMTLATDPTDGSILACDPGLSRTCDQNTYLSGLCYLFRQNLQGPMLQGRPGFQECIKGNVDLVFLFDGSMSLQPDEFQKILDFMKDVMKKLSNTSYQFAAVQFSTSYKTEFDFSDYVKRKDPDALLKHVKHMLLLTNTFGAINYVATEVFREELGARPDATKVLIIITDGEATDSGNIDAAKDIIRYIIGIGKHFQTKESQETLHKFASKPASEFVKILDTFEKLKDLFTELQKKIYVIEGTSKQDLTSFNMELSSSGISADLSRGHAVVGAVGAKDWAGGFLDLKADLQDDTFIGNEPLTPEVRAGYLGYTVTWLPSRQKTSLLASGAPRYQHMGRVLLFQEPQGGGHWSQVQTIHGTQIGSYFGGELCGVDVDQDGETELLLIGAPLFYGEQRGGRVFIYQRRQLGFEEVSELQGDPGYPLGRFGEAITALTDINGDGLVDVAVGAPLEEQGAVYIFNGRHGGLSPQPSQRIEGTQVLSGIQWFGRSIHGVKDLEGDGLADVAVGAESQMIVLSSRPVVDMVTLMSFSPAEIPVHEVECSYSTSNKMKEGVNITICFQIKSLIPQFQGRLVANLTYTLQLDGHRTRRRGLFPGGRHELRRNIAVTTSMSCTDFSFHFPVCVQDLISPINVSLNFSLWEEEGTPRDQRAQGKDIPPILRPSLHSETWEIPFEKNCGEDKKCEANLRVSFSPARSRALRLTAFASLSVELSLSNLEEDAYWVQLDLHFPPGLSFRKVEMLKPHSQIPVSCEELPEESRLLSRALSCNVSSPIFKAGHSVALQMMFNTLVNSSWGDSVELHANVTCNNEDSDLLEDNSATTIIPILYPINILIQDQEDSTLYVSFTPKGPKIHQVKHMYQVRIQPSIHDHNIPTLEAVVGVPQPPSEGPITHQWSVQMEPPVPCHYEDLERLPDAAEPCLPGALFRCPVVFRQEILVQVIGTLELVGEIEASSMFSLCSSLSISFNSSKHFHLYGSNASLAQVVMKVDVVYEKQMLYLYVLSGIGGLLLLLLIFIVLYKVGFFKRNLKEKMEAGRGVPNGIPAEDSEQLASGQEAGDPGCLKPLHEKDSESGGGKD
T1 sequence (P05107 23-769 limits assumed, form in doubt, chain 2 of 2, further chain): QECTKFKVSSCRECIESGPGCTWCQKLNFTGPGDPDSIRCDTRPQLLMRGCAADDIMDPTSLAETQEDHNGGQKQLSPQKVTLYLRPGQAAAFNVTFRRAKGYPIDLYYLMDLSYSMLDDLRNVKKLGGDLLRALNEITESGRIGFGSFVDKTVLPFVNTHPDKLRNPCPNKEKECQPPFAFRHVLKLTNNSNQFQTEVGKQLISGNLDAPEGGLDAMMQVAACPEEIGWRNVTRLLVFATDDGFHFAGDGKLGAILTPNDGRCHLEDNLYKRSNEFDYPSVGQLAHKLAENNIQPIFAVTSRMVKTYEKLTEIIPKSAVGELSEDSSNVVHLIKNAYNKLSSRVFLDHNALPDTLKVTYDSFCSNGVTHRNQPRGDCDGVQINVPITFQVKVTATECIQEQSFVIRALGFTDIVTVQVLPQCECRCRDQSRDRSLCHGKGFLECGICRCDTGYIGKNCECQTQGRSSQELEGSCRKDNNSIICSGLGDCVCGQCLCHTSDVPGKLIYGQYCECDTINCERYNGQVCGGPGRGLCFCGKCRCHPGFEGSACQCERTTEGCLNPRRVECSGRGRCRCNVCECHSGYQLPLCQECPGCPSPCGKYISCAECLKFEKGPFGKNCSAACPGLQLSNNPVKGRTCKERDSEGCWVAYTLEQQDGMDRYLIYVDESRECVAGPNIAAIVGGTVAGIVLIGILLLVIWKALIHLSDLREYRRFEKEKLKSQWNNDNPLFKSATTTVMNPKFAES

- Schild regression y-intercept [1]: 8.51
- IC50 [2]: 1200 nM
- fold IC50 against compound 3 [3]: > 100 fold
B1: sICAM-1 (soluble ICAM-1), P05362 28-480 (ligand, UniProt P05362 28-480, looked up)
chain: QTSVSPSKVILPRGGSVLVTCSTSCDQPKLLGIETPLPKKELLLPGNNRKVYELSNVQEDSQPMCYSNCPDGQSTAKTFLTVYWTPERVELAPLPSWQPVGKNLTLRCQVEGGAPRANLTVVLLRGEKELKREPAVGEPAEVTTTVLVRRDHHGANFSCRTELDLRPQGLELFENTSAPYQLQTFVLPATPPQLVSPRVLEVDTQGTVVCSLDGLFPVSEAQVHLALGDQRLNPTVTYGNDSFSAKASVSVTAEDEGTQRLTCAVILGNQSQETLQTVTIYSFPAPNVILTKPEVSEGTEVTVKCEAHPRAKVTLNGVPAQPLGPRAQLLLKATPEDNGRSFSCSATLEVAGQLIHKNQTRELRVLYGPRLDERDCPGNWTWPENSQQTPMCQAWGNPLPELKCLKDGTFPLPIGESVTVTRDLEGTYLCRARSTQGEVTRKVTVNVLSPRYE
